# Measured values: patent US20080058263A1 (published 2008)
# Numbering of substitutions follows the chain as printed.
# T1: VEGFR-3-Fc (UniProt P35916 25-328)
# T1 construct: domain: first three Ig domains; conditioned supernatant of 293T cells; also called VEGFR-3-Fc fusion protein; not shown: Fc fragment of the pIg vector
# T1 sequence (looked up): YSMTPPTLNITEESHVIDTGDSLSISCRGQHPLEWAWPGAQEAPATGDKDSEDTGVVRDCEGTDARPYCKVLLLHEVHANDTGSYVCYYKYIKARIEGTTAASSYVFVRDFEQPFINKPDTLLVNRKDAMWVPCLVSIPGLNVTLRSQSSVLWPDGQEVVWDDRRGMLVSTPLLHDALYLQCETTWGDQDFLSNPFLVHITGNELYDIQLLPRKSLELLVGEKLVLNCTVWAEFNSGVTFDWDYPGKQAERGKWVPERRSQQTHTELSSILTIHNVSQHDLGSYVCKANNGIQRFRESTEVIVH
# B1: 41-7 (ligand)
# chain: AHYNTEILKFMDVYQRSYCHPREVCIDVGKEYPDEIEYIFKPSCVPLMRCGGCCNSEGLQCVPTEESNITMQIMRIKPHQGQHIGEMSFANHTSCRCMSKLD
# B2: 61-7 (ligand)
# chain: B1 chain with A1G, H2Q, Y3N, N4H, T5H, I7V, L8V
# B3: 43-5 (ligand)
# chain: B1 chain with S43P, P46S, L47V, M48Y, S56D, Q60E
# B4: 44-5 (ligand)
# chain: B1 chain with Y32F, P33G, D34V, E35A, I36T, E37N, Y38T, I39F, S56D, Q60E
# B5: 81-7 (ligand)
# chain: B1 chain with R22I, V24T, C25L, I26V, V28I, G29F, K30Q
# B6: 63-7 (ligand)
# chain: GQNHHEVVKFMDVYQRSYCHPREVCIDVGKEYPDEIEYIFKPPCVSVYRCGGCCNSEGLQCVPTEESNITMQIMRIKPHQGQHIGEMSFANHTSCRCMSKLD
# B7: 61-5 (ligand)
# chain: B6 chain with P43S, S46P, V47L, Y48M, S56D, Q60E
# B8: 44-7 (ligand)
# chain: B1 chain with Y32F, P33G, D34V, E35A, I36T, E37N, Y38T, I39F
# B9: 83-7 (ligand)
# chain: AHYNTEILKFMDVYQRSYCHPIETLVDIFQEYPDEIEYIFKPPCVSVYRCGGCCNSEGLQCVPTEESNITMQIMRIKPHQGQHIGEMSFANHTSCRCMSKLD
# B10: 81-5 (ligand)
# chain: B9 chain with P43S, S46P, V47L, Y48M, S56D, Q60E
# B11: 42-7 (ligand)
# chain: AHYNTEILKFMDVYQRSYCHPREVCIDVGKEFGVATNTFFKPPCVSVYRCGGCCNSEGLQCVPTEESNITMQIMRIKPHQGQHIGEMSFANHTSCRCMSKLD
# B12: 83-9 (ligand)
# chain: AHYNTEILKFMDVYQRSYCHPIETLVDIFQEYPDEIEYIFKPPCVSVYRCGGCCNDEGLECVPTEESNITMQIMRITVPLSQGPKPVTISFLQHNKCECRPKKD
# B13: 83-11 (ligand)
# chain: B12 chain with D56S, E60Q
# B14: 83-13 (ligand)
# chain: B12 chain with L92A, Q93N, N95T, K96S, E98R, R100M, P101S, K103L
# Target: T2, VEGFR-1-Fc (UniProt P17948 27-338)
# T2 construct: domain: first three Ig domains; expressed in Drosophila S2 cells, purified on Protein A sepharose; also called VEGFR-1-Fc fusion protein; not shown: Fc fragment from the Signal-pIgPlus vector
# T2 sequence (P17948 27-338): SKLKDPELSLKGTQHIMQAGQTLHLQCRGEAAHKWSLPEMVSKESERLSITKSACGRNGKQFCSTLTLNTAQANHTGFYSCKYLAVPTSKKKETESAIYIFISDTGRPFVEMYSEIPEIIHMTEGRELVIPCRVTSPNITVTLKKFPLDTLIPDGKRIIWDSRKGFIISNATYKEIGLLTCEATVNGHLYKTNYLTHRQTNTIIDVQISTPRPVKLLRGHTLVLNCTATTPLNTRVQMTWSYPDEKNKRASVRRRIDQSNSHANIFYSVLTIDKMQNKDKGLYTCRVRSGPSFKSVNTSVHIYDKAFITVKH
# Assay: receptor-Fc IP
# Description: (§1) The binding assay procedure was identical to the immunoprecipitation using pentahistidine antibody described in Example 2, apart from the composition of the immunoprecipitation (IP) mixes. The IP mixes used for the receptor binding analysis were as follows: For VEGFR-1 binding assays, the IP mix was phosphate buffered saline (PBS) containing 1.5% BSA, 0.06% Tween 20, 3 μg/ml heparin and 400 ng/ml VEGFR-1-Fc fusion protein (100 μl of this IP mix was added to 200 μl of sample supernatant); for VEGFR-2 binding assays, the IP mix was 82% conditioned cell supernatant from 293T cells transiently expressing VEGFR-2-Fc fusion protein in mixture with 18% of a PBS solution that contained 5% BSA, 0.2% Tween 20, and 10 μg/ml heparin (250 μl of IP mix was added to 200 μl of sample supernatant); and for VEGFR-3 binding assays, the IP mix was 82% conditioned cell supernatant from 293T cells transiently expressing VEGFR-3-Fc fusion protein, 18% of PBS containing 5% BSA, 0.2% Tween 20, and 10 μg/ml heparin (250 μl of IP mix was added to 200 μl of sample supernatant).
row,binding result,Binder
1,no binding,B1
2,no binding,B2
3,no binding,B3
4,no binding,B4
5,binds,B5
6,no binding,B6
7,no binding,B7
8,no binding,B8
9,binds,B9
10,binds,B10
11,no binding,B11
12,binds,B12
13,binds,B13
14,binds,B14

# Target: T1, VEGFR-3-Fc
# Assay: receptor-Fc IP
# Description: as §1
row,binding result,Binder
1,no binding,B1
2,no binding,B2
3,no binding,B3
4,no binding,B4
5,no binding,B5
6,binds,B6
7,no binding,B7
8,no binding,B8
9,no binding,B9
10,no binding,B10
11,no binding,B11
12,no binding,B12
13,no binding,B13
14,no binding,B14

# Target: T3, VEGFR-2-Fc (UniProt P35968 20-322)
# T3 construct: domain: first 3 Ig domains; conditioned supernatant of 293T cells; also called VEGFR-2-Fc fusion protein; not shown: Fc fragment of the pIg vector
# T3 sequence (P35968 20-322): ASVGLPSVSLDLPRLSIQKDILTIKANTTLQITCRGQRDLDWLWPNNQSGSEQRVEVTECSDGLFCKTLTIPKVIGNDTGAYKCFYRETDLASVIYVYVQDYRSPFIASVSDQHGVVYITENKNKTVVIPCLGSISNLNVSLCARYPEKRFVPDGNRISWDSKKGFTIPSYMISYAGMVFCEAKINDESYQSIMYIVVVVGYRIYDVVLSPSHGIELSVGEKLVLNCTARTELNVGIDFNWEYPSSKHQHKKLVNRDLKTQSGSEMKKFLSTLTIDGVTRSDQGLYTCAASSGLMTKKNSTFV
# Assay: receptor-Fc IP
# Description: as §1
row,binding result,Binder
1,no binding,B1
2,no binding,B2
3,no binding,B3
4,no binding,B4
5,binds,B5
6,binds,B6
7,no binding,B7
8,no binding,B8
9,binds,B9
10,binds,B10
11,no binding,B11
12,no binding,B12
13,binds,B13
14,no binding,B14
